This is an account of results in the supplement of paper PMC10567573.

± gives the standard deviation.

The nature of this series: protein stability index of a GFP-peptide fusion (GPS, HEK-293T) (PSI 1-6); higher = more stable. The following applies: c terminus: a fixed tail appended.
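Further: 24-mer peptide tiles fused after GFP, lentivirally expressed, FACS-sorted into six equal bins by GFP/DsRed ratio, decoded by Illumina sequencing, PSI is the read-weighted mean bin number.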

Regarding RLCLPALSQMGAQSSGKILLCPLC [TRIM15], the protein stability index reads like this: (treatment: DMSO) 2.35 ± 0.3; (treatment: MLN4924 1 uM, 8 h) 2.41 ± 0.21.

As to AESRGHSKGWGRNYASIIRRDCMW [MYCL], the protein stability index worked out at 2.23 ± 0.2 (treatment: DMSO) and 2.61 ± 0.39 (treatment: MLN4924 1 uM, 8 h).

Regarding QEYQVLLDVRARLECEINTYRSLL [KRT33B], the protein stability index runs as follows: (treatment: DMSO) 2.25 ± 0.34; (treatment: MLN4924 1 uM, 8 h) 2.19 ± 0.26.

Regarding VGHARGLHAWQINWPARQRGTHAV [SPSB4], the protein stability index reads like this: (treatment: DMSO) 2.96 ± 0.43; (treatment: MLN4924 1 uM, 8 h) 2.87 ± 0.24.

Consider LMSGALAVNQKIDRESLCGASTSC [PCDHGC5], for which the protein stability index is, setting by setting: (treatment: DMSO) 3.67 ± 0.4; (treatment: MLN4924 1 uM, 8 h) 3.6 ± 0.095.

For the sequence MMSLTKLADKELVHMISWAKKIPG [ESR2], the protein stability index runs as follows: (treatment: DMSO) 2.17 ± 0.19; (treatment: MLN4924 1 uM, 8 h) 2.16 ± 0.12.

On to FSPNSPQFNVSGPGLLEEDNQWMT [NECAB1], for which the protein stability index (treatment: DMSO) worked out at 3.23 ± 0.34 and the protein stability index (treatment: MLN4924 1 uM, 8 h) is 3.58 ± 0.3.

Regarding TAFAPKMIVDLLSEKKTISFQGCM [OR4A15], the protein stability index is, setting by setting: (treatment: DMSO) 2.08 ± 0.13; (treatment: MLN4924 1 uM, 8 h) 2.26 ± 0.42.

On to INVNDLSFVTGSHVGELIIWDALD [WDR41], for which the protein stability index (treatment: DMSO) stood at 2.22 ± 0.41 and the protein stability index (treatment: MLN4924 1 uM, 8 h) was determined as 2.12 ± 0.2.

Take NNEIPDCYTFSVLITFDNKAHSGR [MCOLN1]: the protein stability index is, setting by setting: (treatment: DMSO) 2.34 ± 0.31; (treatment: MLN4924 1 uM, 8 h) 2.42 ± 0.53.

Consider QSYPLCIYLINQKWFGRKRTLSAF [SLC22A15], for which the protein stability index (treatment: DMSO) was found to be 2.46 ± 0.47 and the protein stability index (treatment: MLN4924 1 uM, 8 h) was 2.2 ± 0.61.

As for LASRIRSNKKMLLLVGGLPPGPDR [KLHL14], the protein stability index worked out at 2.32 ± 0.17 (treatment: DMSO) and 2.34 ± 0.42 (treatment: MLN4924 1 uM, 8 h).

For the sequence DVRMGGSFRGAFSNSEKAKNIFRI [NET1], the protein stability index reads like this: (treatment: DMSO) 2.32 ± 0.44; (treatment: MLN4924 1 uM, 8 h) 2.44 ± 0.31.

Take AQDLGELLATAEQEQLSLSQRQAK [LRRC45]: the protein stability index (treatment: DMSO) worked out at 5.25 ± 0.3 and the protein stability index (treatment: MLN4924 1 uM, 8 h) came to 5.34 ± 0.058.

Take YCKPTRLDLLLDMPPVSYDVQLLH [SPSB1]: the protein stability index (treatment: DMSO) was 2.2 ± 0.23 and the protein stability index (treatment: MLN4924 1 uM, 8 h) is 2.14 ± 0.33.

Regarding VLEDNIIVSEVQFVESSGGGSSAV [BRF1], the protein stability index (treatment: DMSO) turned out to be 3.75 ± 0.21 and the protein stability index (treatment: MLN4924 1 uM, 8 h) was 3.89 ± 0.27.

EKETMQFLNDRLANYLEKVRQLER [KRT36] came in with a protein stability index (treatment: DMSO) of 2.87 ± 0.38 and a protein stability index (treatment: MLN4924 1 uM, 8 h) of 2.85 ± 0.32.

As to SKARTKSLLGDDVFSTMAGLEEAD [FBF1], the protein stability index was 4.87 ± 0.29 (treatment: DMSO) and 5.05 ± 0.2 (treatment: MLN4924 1 uM, 8 h).

Turning to CCHRSQKGFPGCKLGLHDNHWVPA [FBXO34], the protein stability index stood at 2.2 ± 0.39 (treatment: DMSO) and 2.16 ± 0.34 (treatment: MLN4924 1 uM, 8 h).

With DTPVQNKRRRSVTPPEEQQEAEEP [CDC25B], the protein stability index is, setting by setting: (treatment: DMSO) 5.51 ± 0.35; (treatment: MLN4924 1 uM, 8 h) 5.71 ± 0.22.

In turn, SAFPFSDKLGELSDKIGSTIDDTI [CLINT1] had a protein stability index (treatment: DMSO) of 3.67 ± 0.2 and a protein stability index (treatment: MLN4924 1 uM, 8 h) of 3.81 ± 0.39.

For the sequence TCFDQRKRANAAFLIGAYAVIYLK [CDC14A], the protein stability index by setting is: (treatment: DMSO) 2.05 ± 0.31; (treatment: MLN4924 1 uM, 8 h) 2.13 ± 0.41.

For EHAIAEAQKNMYFKTRLKCPRSLS [ZNF396], the protein stability index is, setting by setting: (treatment: DMSO) 3.26 ± 0.23; (treatment: MLN4924 1 uM, 8 h) 3.53 ± 0.3.

For LGNFFTTLRVVHHKFHSQRHGSKK [TMEM120A], the protein stability index (treatment: DMSO) was determined as 2.39 ± 0.21 and the protein stability index (treatment: MLN4924 1 uM, 8 h) stood at 2.54 ± 0.64.

In the case of PHLRSFCETCVGSWSIQMRQHHHQ, the protein stability index runs as follows: (treatment: DMSO) 2.4 ± 0.25; (treatment: MLN4924 1 uM, 8 h) 2.34 ± 0.23.

As for GFFLLQLANHTGYIKVDWQRVEKD [FUNDC2], the protein stability index is, setting by setting: (treatment: DMSO) 2.34 ± 0.69; (treatment: MLN4924 1 uM, 8 h) 2.11 ± 0.37.

For the sequence VHQLSKKEASRHAIMRSPQMVSAI [CTNNB1], the protein stability index by setting is: (treatment: DMSO) 3.06 ± 0.26; (treatment: MLN4924 1 uM, 8 h) 3.06 ± 0.22.

EMRTKEQILELLVLEQFLTILPQE [ZNF263]: the protein stability index was found to be 2.44 ± 0.35 (treatment: DMSO) and 2.26 ± 0.43 (treatment: MLN4924 1 uM, 8 h).

On to TQDPSQPNSTKNQSLPKASPVTTS [LCOR], for which the protein stability index by setting is: (treatment: DMSO) 5.21 ± 0.19; (treatment: MLN4924 1 uM, 8 h) 5.12 ± 0.23.

Consider QRLGIPKDPRQWTETHVRDWVMWA [ETS1], for which the protein stability index was 2.37 ± 0.31 (treatment: DMSO) and 2.48 ± 0.3 (treatment: MLN4924 1 uM, 8 h).

For the sequence MATLNRTAAGLMHTFNAHAATDIT [SEPHS2], the protein stability index amounted to 2.95 ± 0.053 (treatment: DMSO) and 3.01 ± 0.19 (treatment: MLN4924 1 uM, 8 h).

As for HILASAPTDRNLCHFQALGCRTTH [PYCR3], the protein stability index (treatment: DMSO) is 2.19 ± 0.45 and the protein stability index (treatment: MLN4924 1 uM, 8 h) is 2.23 ± 0.15.

As to PDPEPPPVTPQVGEGRKSRKFSRL [SMG5], the protein stability index runs as follows: (treatment: DMSO) 3.98 ± 0.27; (treatment: MLN4924 1 uM, 8 h) 4.14 ± 0.45.

Consider PAWGHCFYRLYQDLETHRLPCTSR [SCNN1D], for which the protein stability index is, setting by setting: (treatment: DMSO) 2.32 ± 0.12; (treatment: MLN4924 1 uM, 8 h) 2.62 ± 0.32.

The sequence DGVPHLILIASRDIAAGEELLYDY [KMT5A] came in with a protein stability index (treatment: DMSO) of 1.98 ± 0.31 and a protein stability index (treatment: MLN4924 1 uM, 8 h) of 2.13 ± 0.099.

ELRNVQDVVEDYKKRYEEEINKRT [KRT71]: the protein stability index was 3.62 ± 0.35 (treatment: DMSO) and 4.45 ± 0.24 (treatment: MLN4924 1 uM, 8 h).

Regarding LEPDEDPLCMLLLIDHLALRARNY [TCF25], the protein stability index (treatment: DMSO) is 2.54 ± 0.32 and the protein stability index (treatment: MLN4924 1 uM, 8 h) stood at 2.37 ± 0.23.

Take LCLGGLACLIVMFLPEKKDTGVFA [SLC22A15]: the protein stability index was 3.44 ± 0.26 (treatment: DMSO) and 3.08 ± 0.67 (treatment: MLN4924 1 uM, 8 h).

Take SSASYEKENEMMKSHVMDQAINNA [IKZF1]: the protein stability index came out at 4.78 ± 0.19 (treatment: DMSO) and 4.74 ± 0.28 (treatment: MLN4924 1 uM, 8 h).

LTLCKSDLESQVESLREELICLKK [KRT34]: the protein stability index is 2.89 ± 0.87 (treatment: DMSO) and 2.65 ± 0.27 (treatment: MLN4924 1 uM, 8 h).

With RFQDLVLRMLEYEPAARISPLGAL [DYRK1B], the protein stability index (treatment: DMSO) worked out at 2.67 ± 0.47 and the protein stability index (treatment: MLN4924 1 uM, 8 h) amounted to 2.4 ± 0.43.

In the case of PQGLFVEALSVPLSLCVSSHLALP [CLPTM1], the protein stability index came out at 2.96 ± 0.59 (treatment: DMSO) and 2.91 ± 0.41 (treatment: MLN4924 1 uM, 8 h).

In the case of DVTCFLLPHPGLQVATSPDFDGKL [ATL3], the protein stability index runs as follows: (treatment: DMSO) 2.58 ± 0.27; (treatment: MLN4924 1 uM, 8 h) 2.69 ± 0.35.

For the sequence LKNNETLVQHGVKPQEIVQVEIFS [IQUB], the protein stability index stood at 2.82 ± 0.54 (treatment: DMSO) and 2.98 ± 0.7 (treatment: MLN4924 1 uM, 8 h).

In turn, RLRGKLRAEIENLHRTFDPHFLRV [MOG] returned a protein stability index (treatment: DMSO) of 2.48 ± 0.18 and a protein stability index (treatment: MLN4924 1 uM, 8 h) of 2.44 ± 0.28.

VVCVLLNLAGFILGCQGAQFVSSV [FAM189A2]: the protein stability index came to 3.35 ± 0.99 (treatment: DMSO) and 2.21 ± 0.42 (treatment: MLN4924 1 uM, 8 h).

Take LPKEASDGTGASQEPPTTDSQEAQ [TOR1AIP2]: the protein stability index reads like this: (treatment: DMSO) 5.65 ± 0.29; (treatment: MLN4924 1 uM, 8 h) 5.54 ± 0.2.

In the case of DVVNYFRTVGFEEQASAFQEQEID [SAMD13], the protein stability index was 3.44 ± 0.28 (treatment: DMSO) and 3.88 ± 0.44 (treatment: MLN4924 1 uM, 8 h).

In the case of EQAQAYAERLGVTFFEVSPLCNFN [RAB40A], the protein stability index runs as follows: (treatment: DMSO) 2.25 ± 0.26; (treatment: MLN4924 1 uM, 8 h) 2.48 ± 0.3.

For GYQRKCYFISTVKRSWTSAQNACS [CD69], the protein stability index reads like this: (treatment: DMSO) 2.46 ± 0.66; (treatment: MLN4924 1 uM, 8 h) 1.85 ± 0.59.

In the case of SVILNHMAREHAFNIGLPDNIVNC [ZNF277], the protein stability index (treatment: DMSO) came to 1.98 ± 0.2 and the protein stability index (treatment: MLN4924 1 uM, 8 h) stood at 2.22 ± 0.45.

Consider LTAALLTFDTGCLTLSQYILLDPI [POMT2], for which the protein stability index is, setting by setting: (treatment: DMSO) 3.36 ± 0.32; (treatment: MLN4924 1 uM, 8 h) 3.12 ± 0.14.

Regarding EAPQWLESDSCQKCEQPFFWNIKQ [WDFY1], the protein stability index worked out at 3.32 ± 0.7 (treatment: DMSO) and 3.48 ± 0.38 (treatment: MLN4924 1 uM, 8 h).
